Key:
[1] = target: H2A.Z-containing nucleosome (H. sapiens histone octamer, H2B labeled with ATTO643) assembled on lambda-DNA (H. sapiens) (UniProt P0C0S5); assay: single-molecule DNA curtains (TIRF; two-colour co-localization); ATTO643-labeled H2A.Z nucleosomes on sparsely chromatinized double-tethered lambda-DNA, washed with 350 mM NaCl; LD555-INO80 flushed in, flow stopped; DNA curtains buffer with 1 mM ATP
[2] = target: S. cerevisiae wild-type INO80 complex, labeled with LD555 (S. cerevisiae) (UniProt P53115); assay: single-molecule DNA curtains (TIRF; fluorescence intensity and photobleaching steps); LD555-labeled INO80 on double-tethered lambda-DNA; 20 mM HEPES pH 8.0, 1 mg/mL BSA, 4 mM Mg(OAc)2, 1 mM ATP, 1 mM DTT, 120 mM KGlu; 125 to 250 pM INO80 injected

Substance	co-localization time, second population (short associations) [1] [s]	co-localization time, third population (extremely long-lived co-localizations) [1] [s]	median interaction (co-localization) time [1] [s]	percent of DNA-bound complexes that are dimers [2] [%]	stoichiometry N [2]
S. cerevisiae wild-type INO80 complex, labeled with LD555 (from UniProt P53115 1-1489; Q03940 1-463; Q12464 1-471; P53946 1-755; P32617 1-166; P60010 1-375; P80428 1-489; Q12386 1-881; P35189 1-244; P40154 1-320; Q08561 1-116; P43579 1-692; Q12345 1-250; P40060 1-125; Q03435 1-203)	16.6	1200	15.3		
S. cerevisiae wild-type INO80 complex, labeled with LD555 (from UniProt P53115 1-1489; Q03940 1-463; Q12464 1-471; P53946 1-755; P32617 1-166; P60010 1-375; P80428 1-489; Q12386 1-881; P35189 1-244; P40154 1-320; Q08561 1-116; P43579 1-692; Q12345 1-250; P40060 1-125; Q03435 1-203) (complex; LD555 on the ybbR-tag (Sfp with LD555-CoA); LD555 on the ybbR-tag (Sfp with LD555-CoA))				11	2

— publication PMC13623949
